Patent US20260242478A1 (published 2026)
Where no end group is shown, it is not given here.

B1: Phage-2880 (peptide)
peptide: MHLMCKPAWMCAGF
notes: tested as crude clonal phage supernatant
B2: Phage-2905 (peptide)
peptide: PSHYCVPAWMCAGF
modifications: cysteine pairing not given here; also: peptide displayed as fusion to phage pIII
B3: Phage-2906 (peptide)
peptide: VEPSCVPYWMCLGF
modifications: cysteine pairing not given here; also: peptide displayed as fusion to phage pIII
notes: also called peptide-180 library clone
B4: Phage-2887 (peptide)
peptide: SLPLCKPLWMCEGF
notes: as for B1
B5: Phage-2888 (peptide)
peptide: VSKVCKPAWMCEGL
notes: as for B1
B6: Phage-2886 (peptide)
peptide: DGIKCVPRWMCDGF
notes: as for B1
B7: Phage-2889 (peptide)
peptide: MASLCVPSWMCTGF
notes: as for B1
B8: Phage-2882 (peptide)
peptide: PERMCIPSWMCEVL
notes: as for B1
B9: Phage-2891 (peptide)
peptide: EAHICRPLWMCTGF
notes: as for B1
B10: Phage-2883 (peptide)
peptide: WDAKCVPRWMCDGF
notes: as for B1
B11: Phage-2878 (peptide)
peptide: ESARCVPMWMCNGF
notes: as for B1
B12: Phage-2879 (peptide)
peptide: VTVICKPQWMCVGF
notes: as for B1
B13: Phage-2890 (peptide)
peptide: QEVYCKPAWMCDGF
notes: as for B1
B14: Phage-2881 (peptide)
peptide: GDPVCKPTWMCLGF
notes: as for B1
B15: Phage-2884 (peptide)
peptide: EFMRCTPPWMCLGF
notes: as for B1
B16: Phage-2885 (peptide)
peptide: NPPYCVPAWMCAGF
notes: as for B1

Key:
PSMA Fab [1] = molecular target: T1, PSMA Fab; experiment: clonal phage ELISA on biotinylated PSMA Fab captured on neutravidin plates, anti-M13-HRP detection, no PSMA antigen
T1 construct: Biotinylated and captured on neutravidin plates in the phage ELISA; also called anti-PSMA Fab; 006 PSMA Fab
Method: (§1) Clonal phage were harvested as crude supernatants and screened via standard ELISAs. […] Prior to the addition of clonal phage. wells were incubated with blocking buffer and PSMA antigen or blocking buffer alone. Without washing or aspirating, clonal phage supernatants were then added to the wells and incubated for a short time. Wells were then washed followed by detection of bound phage using a horse radish conjugated anti-M13 antibody.

PSMA Fab [2] = molecular target: T1, PSMA Fab; experiment: clonal phage ELISA on captured PSMA Fab, wells pre-incubated with PSMA antigen as competitor, anti-M13-HRP detection;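 further: crude clonal phage supernatants added without washing after the PSMA preincubation, comparison wells received blocking buffer alone without PSMA, bound phage read after washing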
Method: as §1

006 PSMA Fab [3] = molecular target: T2, 006 PSMA Fab; experiment: phage ELISA; biotinylated PSMA Fab on neutravidin plate, blocking buffer alone, anti-M13-HRP detection
T2 construct: also called Anti-PSMA Fab
Method: as §1

006 PSMA Fab [4] = molecular target: T2, 006 PSMA Fab; experiment: phage ELISA; biotinylated PSMA Fab on neutravidin plate, wells pre-incubated with PSMA antigen as competitor, anti-M13-HRP detection
Method: as §1

Anti-PSMA Fab [5] = molecular target: T3, Anti-PSMA Fab; experiment: phage ELISA; PSMA Fab on plate pre-incubated with PSMA antigen (competitor), anti-M13-HRP detection
T3 construct: Biotinylated and captured on neutravidin coated plates in the panning ELISA; also called 006 PSMA Fab
Method: as §1

Anti-PSMA Fab [6] = molecular target: T3, Anti-PSMA Fab; experiment: phage ELISA; biotinylated PSMA Fab on neutravidin plate, clonal phage supernatant, anti-M13-HRP detection;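 further: wells were preincubated with blocking buffer containing PSMA antigen or with blocking buffer only, then phage supernatant was added without washing for a brief incubation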
Method: as §1

PSMA Fab [7] = molecular target: T4, PSMA Fab; experiment: clonal phage ELISA on biotinylated PSMA Fab captured on neutravidin plates, anti-M13 HRP detection;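 further: crude clonal phage supernatants tested, before phage were added, wells were pretreated with PSMA antigen in blocking buffer or with blocking buffer only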
T4 construct: Biotinylated and captured on neutravidin coated plates in the phage ELISA; also called Anti-PSMA Fab; 006 PSMA Fab
Method: as §1

PSMA Fab [8] = molecular target: T4, PSMA Fab; experiment: clonal phage ELISA on captured PSMA Fab pre-incubated with PSMA antigen as competitor, anti-M13 HRP detection;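 further: crude clonal phage supernatants tested by ELISA, wells first treated with blocking buffer plus PSMA antigen, bound phage read out via HRP-linked anti-M13 antibody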
Method: as §1

| Binder | phage binding ELISA signal (PSMA Fab [1]) | phage binding ELISA signal in presence of PSMA (PSMA Fab [2]) | Phage binding ELISA signal, Anti-PSMA Fab (006 PSMA Fab [3]) | Phage binding ELISA signal, Anti-PSMA Fab in presence of PSMA antigen (006 PSMA Fab [4]) | other results |
| --- | --- | --- | --- | --- | --- |
| QALMCVPEWMCLGF [Phage-2895] | 2.35 | 0.1 |  |  |  |
| B1 |  |  | 2.38 | 0.118 |  |
| MEIRCTPPWMCMGF [Phage-2899] | 2.34 | 0.0795 |  |  |  |
| B2 | 2.33 | 0.0875 |  |  |  |
| B3 |  |  |  |  | Phage binding ELISA signal, Anti-PSMA Fab in presence of PSMA (Anti-PSMA Fab [5]): 0.0835; Phage binding ELISA signal, Anti-PSMA Fab (Anti-PSMA Fab [6]): 2.33 |
| VFPACVPNWMCVGF [Phage-2904] | 2.33 | 0.129 |  |  |  |
| B4 |  |  | 2.36 | 0.0872 |  |
| B5 |  |  | 2.36 | 0.104 |  |
| B6 |  |  | 2.36 | 0.146 |  |
| ALPQCVPAWMCLGF [Phage-2893] | 2.35 | 0.0796 |  |  |  |
| B7 |  |  | 2.36 | 0.0629 |  |
| TLSMCVPTWMCTGF [Phage-2877] |  |  |  |  | Phage binding ELISA signal, Anti-PSMA Fab (PSMA Fab [7]): 2.38; Phage binding ELISA signal, Anti-PSMA Fab with PSMA antigen (PSMA Fab [8]): 0.115 |
| B8 |  |  | 2.38 | 0.1 |  |
| PWLMCKPAWMCTGF [Phage-2900] | 2.34 | 0.183 |  |  |  |
| VLKMCEPLWMCVGF [Phage-2894] | 2.35 | 0.117 |  |  |  |
| IERMCRPAWMCDGF [Phage-2896] | 2.35 | 0.188 |  |  |  |
| B9 |  |  | 2.36 | 0.0899 |  |
| B10 |  |  | 2.37 | 0.125 |  |

| Binder | phage binding ELISA signal (PSMA Fab [1]) | phage binding ELISA signal in presence of PSMA (PSMA Fab [2]) | Phage binding ELISA signal, Anti-PSMA Fab (006 PSMA Fab [3]) | Phage binding ELISA signal, Anti-PSMA Fab in presence of PSMA antigen (006 PSMA Fab [4]) | other results |
| --- | --- | --- | --- | --- | --- |
| B11 |  |  | 2.38 | 0.0714 |  |
| GEPVCKPAWMCEGF (also called peptide-180 library clone) [Phage-2909] |  |  |  |  | Phage binding ELISA signal, Anti-PSMA Fab in presence of PSMA (Anti-PSMA Fab [5]): 0.128; Phage binding ELISA signal, Anti-PSMA Fab (Anti-PSMA Fab [6]): 2.33 |
| B12 |  |  | 2.38 | 0.0878 |  |
| DDIRCKPAWMCMGF [Phage-2876] |  |  |  |  | Phage binding ELISA signal, Anti-PSMA Fab (PSMA Fab [7]): 2.38; Phage binding ELISA signal, Anti-PSMA Fab with PSMA antigen (PSMA Fab [8]): 0.127 |
| NWPVCKPMWMCTGF [Phage-2898] | 2.34 | 0.155 |  |  |  |
| ETPFCIPQWMCDGF [Phage-2892] | 2.35 | 0.123 |  |  |  |
| B13 |  |  | 2.36 | 0.104 |  |
| HDKLCRPAWMCNGF [Phage-2897] | 2.35 | 0.107 |  |  |  |
| ETLRCEPMWMCMGF [Phage-2874] |  |  |  |  | Phage binding ELISA signal, Anti-PSMA Fab (PSMA Fab [7]): 2.39; Phage binding ELISA signal, Anti-PSMA Fab with PSMA antigen (PSMA Fab [8]): 0.0975 |
| AEMRCIPEWMCSGF (also called peptide-180 library clone) [Phage-2907] |  |  |  |  | Phage binding ELISA signal, Anti-PSMA Fab in presence of PSMA (Anti-PSMA Fab [5]): 0.118; Phage binding ELISA signal, Anti-PSMA Fab (Anti-PSMA Fab [6]): 2.33 |
| SMPRCVPVWMCEGF [Phage-2875] |  |  |  |  | Phage binding ELISA signal, Anti-PSMA Fab (PSMA Fab [7]): 2.39; Phage binding ELISA signal, Anti-PSMA Fab with PSMA antigen (PSMA Fab [8]): 0.107 |
| B14 |  |  | 2.38 | 0.09 |  |
| VTPACVPTWMCYGF [Phage-2903] | 2.34 | 0.116 |  |  |  |
| B15 |  |  | 2.37 | 0.12 |  |
| LGLACIPEWMCVGF (also called peptide-180 library clone) [Phage-2908] |  |  |  |  | Phage binding ELISA signal, Anti-PSMA Fab in presence of PSMA (Anti-PSMA Fab [5]): 0.0789; Phage binding ELISA signal, Anti-PSMA Fab (Anti-PSMA Fab [6]): 2.33 |
| QTVMCRPAWMCVGF [Phage-2902] | 2.34 | 0.092 |  |  |  |
| B16 |  |  | 2.37 | 0.0765 |  |
| VTPKCVPMWMCAGF [Phage-2901] | 2.34 | 0.123 |  |  |  |
